This is an account of results in article PMC6814797, “C-terminal–modified LY2510924: a versatile scaffold for targeting C-X-C chemokine receptor type 4” (Scientific Reports, 2019).

One data set addresses T1, CXCR4 (Homo sapiens, UniProt P61073).
T1 construct: were determined with CCRF-CEM cells expressing endogenous CXCR4; endogenous in cells; host or cells: CCRF-CEM (human acute lymphoblastic leukemia) whole cells
The data set can be described thus: Competitive binding assay: displacement of 125I-SDF-1α from CXCR4-expressing CCRF-CEM cells. Particulars: CCRF-CEM 0.5 × 10^6 cells, 125I-SDF-1α 1 kBq, 0.25 nM SDF-1α, one hour, room temperature per method (b54 says 37 °C); mean ± SD, n = 3. The protocol: CCRF-CEM cells and ^125I-SDF-1α were used for the competitive binding assay. The competitive binding assay was performed in a 96-well MultiScreen HTS FB plate (Merck) treated with 0.1% polyethyleneimine. RPMI-1640 containing 1% bovine serum albumin (BSA) and 0.05% Tween20 was used for the assay buffer. Briefly, 200-μL reaction mixtures containing CCRF-CEM (0.5 × 10^6 cells), ^125I-SDF-1α (1 kBq), SDF-1α (0.05 pmol; R&D Systems, Minneapolis, MN), and varying concentrations of CXCR4 antagonists were incubated at room temperature for one hour. After the incubation, the cells were washed three times with the assay buffer, and radioactivity counts of cells were determined with a gamma counter. The IC50 values were calculated by using GraphPad Prism version 5.04 (GraphPad Software, San Diego, CA).
Since the purpose of this study was to assess in vivo accumulation to CXCR4-expressing cells, the apparent binding affinities were determined at 37 °C. […] The half-maximal inhibitory concentration (IC50) values of FRM001, its Ga-, Lu-, and Y-complexes, and other CXCR4 antagonists were determined with CCRF-CEM cells expressing endogenous CXCR4[34]. The displacement of ^125I-SDF-1α bound to the CXCR4 with the compounds was also evaluated in the presence of 0.25 nM of SDF-1α.
For orientation: Loss of bound radioactivity is the signal in a displacement assay; it reports binding, not function.

A further data set can be described thus: physchem. In kind it is physicochemical. Particulars: pH 7.4. The protocol:
A solution of ^67Ga-FRM001 (168 kBq, 56.8 pmol of FRM001) in 0.5 mL of 1-octanol was added to a 0.5 mL solution of phosphate-buffered saline (PBS) (pH 7.4). The mixture was vortexed and rotated at room temperature for 5 min. After centrifugation at 13,000 × g for 5 min, the radioactivity concentrations in samples of both the aqueous and organic phases were determined by using a gamma counter, and the logPow values were calculated.

The nature of another data set: in vivo. Particulars: female, SCID (C.B-17/Icr-scid/scid), mouse, iv, total radioactivity; for tissue uptake at 4 h: biodistribution. The protocol:
All animal experiments were conducted in accordance with the Guidelines for Proper Conduct of Animal Experiments issued by the Science Council of Japan (June 1, 2006), and all experimental protocols were approved by the Institutional Animal Care and Use Committee of FUJIFILM RI Pharma Co., Ltd. (Permit No. Rin-170802 and Rin-180101). The acute lymphoblastic leukemia CCRF-CEM model was prepared using a published procedure. Briefly, 5 × 10^6 cells mixed with Matrigel (1:1; Corning, Corning, NY) were implanted subcutaneously into the rear flank of female 10-week-old SCID mice (C.B-17/Icr-scid/scid; CLEA Japan, Tokyo). After an average of three weeks, the animals were used in biodistribution and PET imaging studies. Tumor volumes ranged from 709–2,257 mm^3, while the tumor mass-to-body weight ratio was 3.1–9.4%.
Mice were sacrificed at four hours after the injection. Organs of interest were removed, weighed, and the radioactivity counts were determined using a gamma counter. The biodistribution of each sample was expressed as a percentage of the injected dose per gram of wet tissue weight (%ID/g).

Where a SMILES comes first, the peptide text is derived from it. Bridges are numbered along the chain shown (N, C = ends). [ ]: non-standard residue; d: D form. 2Nal = N[C@@H](Cc1ccc2ccccc2c1)C(=O)O; Lys(iPr) = CC(C)NCCCC[C@H](N)C(=O)O

T1 sequence (P61073 whole entry): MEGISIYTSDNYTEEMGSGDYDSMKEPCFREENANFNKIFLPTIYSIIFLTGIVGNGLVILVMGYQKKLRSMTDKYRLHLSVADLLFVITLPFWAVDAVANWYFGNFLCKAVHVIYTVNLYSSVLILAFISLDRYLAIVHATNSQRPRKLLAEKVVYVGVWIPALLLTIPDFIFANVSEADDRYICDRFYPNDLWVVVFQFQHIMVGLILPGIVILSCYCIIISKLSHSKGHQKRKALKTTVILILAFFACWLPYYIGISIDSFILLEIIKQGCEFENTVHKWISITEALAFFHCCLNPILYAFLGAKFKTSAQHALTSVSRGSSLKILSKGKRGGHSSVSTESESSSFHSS

One may read the IC50 as the concentration that inhibits the measured activity by half. A low value points to greater potency. As to `CC(C)NCCCC[C@@H]1NC(=O)[C@H](Cc2ccc(O)cc2)NC(=O)[C@H](Cc2ccccc2)NC(=O)CC[C@H](C(=O)N[C@@H](CCCCNC(C)C)C(=O)N[C@@H](CSC2CC(=O)N(CCNC(=O)CN3CCN(CC(=O)O)CCN(CC(=O)O)CCN(CC(=O)O)CC3)C2=O)C(N)=O)NC(=O)CNC(=O)[C@H](Cc2ccc3ccccc3c2)NC(=O)[C@@H](CCCNC(=N)N)NC1=O` (stereo partly shown) [Ga-FRM001], the IC50 at CXCR4 worked out at 2.26 ± 0.51 nM.
Still for that read-out and setting: in the case of `c1ccc(CNCc2ccc(CN3CCCNCCNCCCNCC3)cc2)nc1` [AMD3465, reference compound] it was 12.8 ± 1.52 nM.
Compound `CC(C)NCCCC[C@@H]1NC(=O)[C@H](Cc2ccc(O)cc2)NC(=O)[C@H](Cc2ccccc2)NC(=O)CC[C@H](C(=O)N[C@@H](CCCCNC(C)C)C(=O)N[C@@H](CSC2CC(=O)N(CCNC(=O)CN3CCN(CC(=O)O)CCN(CC(=O)O)CCN(CC(=O)O)CC3)C2=O)C(N)=O)NC(=O)CNC(=O)[C@H](Cc2ccc3ccccc3c2)NC(=O)[C@@H](CCCNC(=N)N)NC1=O` (stereo partly shown) [Lu-FRM001] registered an IC50 on CXCR4 of 2.15 ± 0.14 nM.
Same read-out and setting: with `CC(C)NCCCC[C@H](NC(=O)[C@H]1CCC(=O)N[C@@H](Cc2ccccc2)C(=O)N[C@@H](Cc2ccc(O)cc2)C(=O)N[C@@H](CCCCNC(C)C)C(=O)N[C@H](CCCNC(=N)N)C(=O)N[C@@H](Cc2ccc3ccccc3c2)C(=O)NCC(=O)N1)C(N)=O` [LY2510924, cyclo[Phe-Tyr-Lys(iPr)-D-Arg-2-Nal-Gly-D-Glu]-Lys(iPr)-NH2] (FY[Lys(iPr)][dR][2Nal]G[dE][Lys(iPr)]-NH2; lactam N-7) the figure was 1.37 ± 0.1 nM; with `CC(C)NCCCC[C@@H]1NC(=O)[C@H](Cc2ccc(O)cc2)NC(=O)[C@H](Cc2ccccc2)NC(=O)CC[C@H](C(=O)N[C@@H](CCCCNC(C)C)C(=O)N[C@@H](CSC2CC(=O)N(CCNC(=O)CN3CCN(CC(=O)O)CCN(CC(=O)O)CCN(CC(=O)O)CC3)C2=O)C(N)=O)NC(=O)CNC(=O)[C@H](Cc2ccc3ccccc3c2)NC(=O)[C@@H](CCCNC(=N)N)NC1=O` (stereo partly drawn) [FRM001, cyclo[Phe-Tyr-Lys(iPr)-D-Arg-2-Nal-Gly-D-Glu]-Lys(iPr)-Cys(maleimido-mono-amide-DOTA)-NH2], 1.78 ± 0.15 nM; with `CC(C)NCCCC[C@@H]1NC(=O)[C@H](Cc2ccc(O)cc2)NC(=O)[C@H](Cc2ccccc2)NC(=O)CC[C@H](C(=O)N[C@@H](CCCCNC(C)C)C(=O)N[C@@H](CSC2CC(=O)N(CCNC(=O)CN3CCN(CC(=O)O)CCN(CC(=O)O)CCN(CC(=O)O)CC3)C2=O)C(N)=O)NC(=O)CNC(=O)[C@H](Cc2ccc3ccccc3c2)NC(=O)[C@@H](CCCNC(=N)N)NC1=O` (stereo partly shown) [Y-FRM001], 0.89 ± 0.04 nM.
In general, logD refers to lipophilicity at a set pH, counting ionised and neutral species. Lower therefore signals a more hydrophilic compound. What is called tissue uptake is the share of the injected amount in each gram of the tissue. `CC(C)NCCCC[C@@H]1NC(=O)[C@H](Cc2ccc(O)cc2)NC(=O)[C@H](Cc2ccccc2)NC(=O)CC[C@H](C(=O)N[C@@H](CCCCNC(C)C)C(=O)N[C@@H](CSC2CC(=O)N(CCNC(=O)CN3CCN(CC(=O)O)CCN(CC(=O)O)CCN(CC(=O)O)CC3)C2=O)C(N)=O)NC(=O)CNC(=O)[C@H](Cc2ccc3ccccc3c2)NC(=O)[C@@H](CCCNC(=N)N)NC1=O` (stereo partly shown) [^67Ga-FRM001, metal not drawn] had a logD in “physchem” of -3.23 ± 0.05. Further, in “in vivo” (0.2 nmol FRM001/mouse), the tissue to tissue ratio at 4 h was determined as 59. Also, the tissue uptake at 4 h was found to be 1.02 ± 0.192 %ID/g in the data set “in vivo” (0.2 nmol FRM001/mouse, adrenals); 0.205 ± 0.033 %ID/g in the data set “in vivo” (0.2 nmol FRM001/mouse, blood); 0.682 ± 0.099 %ID/g in “in vivo” (0.2 nmol FRM001/mouse, bone); 0.015 ± 0.003 %ID/g in “in vivo” (0.2 nmol FRM001/mouse, brain); 0.291 ± 0.137 %ID/g in the data set “in vivo” (0.2 nmol FRM001/mouse, fat); 0.385 ± 0.063 %ID/g in the data set “in vivo” (0.2 nmol FRM001/mouse, heart). The tissue uptake at 4 h came to 4.85 ± 0.501 %ID/g in “in vivo” (0.2 nmol FRM001/mouse, kidneys); 0.852 ± 0.318 %ID/g in “in vivo” (0.2 nmol FRM001/mouse, large intestine); 16.1 ± 2.66 %ID/g in “in vivo” (0.2 nmol FRM001/mouse, liver); 2.01 ± 0.301 %ID/g in the data set “in vivo” (0.2 nmol FRM001/mouse, lungs); 0.107 ± 0.018 %ID/g in the data set “in vivo” (0.2 nmol FRM001/mouse, muscle); 0.808 ± 0.247 %ID/g in “in vivo” (0.2 nmol FRM001/mouse, ovary). Further, the tissue uptake at 4 h came to 0.404 ± 0.076 %ID/g in “in vivo” (0.2 nmol FRM001/mouse, skin); 0.355 ± 0.036 %ID/g in “in vivo” (0.2 nmol FRM001/mouse, small intestine); 0.381 ± 0.417 %ID/g in the data set “in vivo” (0.2 nmol FRM001/mouse, stomach); 1.57 ± 0.587 %ID/g in “in vivo” (0.2 nmol FRM001/mouse, thymus); 12 ± 1.99 %ID/g in the data set “in vivo” (0.2 nmol FRM001/mouse, tumor); 0.944 ± 0.338 %ID/g in “in vivo” (0.2 nmol FRM001/mouse, uterus). Besides, the tissue uptake at 4 h in the data set “in vivo” (0.2 nmol/mouse, pancreas) amounted to 0.198 ± 0.016 %ID/g; in the data set “in vivo” (0.2 nmol/mouse, spleen), 3.77 ± 0.195 %ID/g.
